Target: T1, endogenous human Ataxin-2 (human, UniProt Q99700 1-1313, limits assumed)
T1 construct: Endogenous protein in HEK293T lysate, detected by immunoblot with α-Ataxin-2 (BD); also called ATXN2
Test: co-immunoprecipitation from HEK293T lysate (α-GFP IP, α-Ataxin-2 blot)
Source text: CFP-Pbp1 and TDP-43-YFP show accumulations in yeast that frequently co-localize (arrows). b) Co-immunoprecipitation assays in yeast. Yeast cells co-transformed with untagged TDP-43 and either CFP-Pbp1 or CFP alone were lysed and subjected to immunoprecipitation with an α-GFP antibody (also detects CFP), then subjected to immunoblotting with a-TDP43. […] HEK293T cells were transfected with expression constructs encoding YFP, TDP-43-YFP, TDP-43ΔNLS-YFP (NLS mutant that localizes the protein to the cytoplasm), TDP-43_{ΔNLS,5F}_{_{→}}L-YFP (NLS mutant coupled with RNA-binding mutant, (5 point mutations in the RRM domains that abolish RNA-binding)), or TDP-435F_{_{→}}L-YFP (RNA-binding mutant). Protein was immunoprecipitated with a-GFP antibody (detects YFP), and then subjected to immunoblotting with a-Ataxin-2 to detect endogenous Ataxin-2. […] The interaction between Ataxin-2 and TDP-43 seen normally (left lanes) was abolished upon RNase treatment (right lanes). e) HEK293T cells transfected with YFP-tagged WT and mutant TDP-43 constructs then immunostained for endogenous Ataxin-2. Normally, Ataxin-2 is localized to the cytoplasm forming occasional cytoplasmic accumulations. TDP-43 localized to the nucleus in a diffuse pattern. […]

T1 sequence (Q99700 whole entry): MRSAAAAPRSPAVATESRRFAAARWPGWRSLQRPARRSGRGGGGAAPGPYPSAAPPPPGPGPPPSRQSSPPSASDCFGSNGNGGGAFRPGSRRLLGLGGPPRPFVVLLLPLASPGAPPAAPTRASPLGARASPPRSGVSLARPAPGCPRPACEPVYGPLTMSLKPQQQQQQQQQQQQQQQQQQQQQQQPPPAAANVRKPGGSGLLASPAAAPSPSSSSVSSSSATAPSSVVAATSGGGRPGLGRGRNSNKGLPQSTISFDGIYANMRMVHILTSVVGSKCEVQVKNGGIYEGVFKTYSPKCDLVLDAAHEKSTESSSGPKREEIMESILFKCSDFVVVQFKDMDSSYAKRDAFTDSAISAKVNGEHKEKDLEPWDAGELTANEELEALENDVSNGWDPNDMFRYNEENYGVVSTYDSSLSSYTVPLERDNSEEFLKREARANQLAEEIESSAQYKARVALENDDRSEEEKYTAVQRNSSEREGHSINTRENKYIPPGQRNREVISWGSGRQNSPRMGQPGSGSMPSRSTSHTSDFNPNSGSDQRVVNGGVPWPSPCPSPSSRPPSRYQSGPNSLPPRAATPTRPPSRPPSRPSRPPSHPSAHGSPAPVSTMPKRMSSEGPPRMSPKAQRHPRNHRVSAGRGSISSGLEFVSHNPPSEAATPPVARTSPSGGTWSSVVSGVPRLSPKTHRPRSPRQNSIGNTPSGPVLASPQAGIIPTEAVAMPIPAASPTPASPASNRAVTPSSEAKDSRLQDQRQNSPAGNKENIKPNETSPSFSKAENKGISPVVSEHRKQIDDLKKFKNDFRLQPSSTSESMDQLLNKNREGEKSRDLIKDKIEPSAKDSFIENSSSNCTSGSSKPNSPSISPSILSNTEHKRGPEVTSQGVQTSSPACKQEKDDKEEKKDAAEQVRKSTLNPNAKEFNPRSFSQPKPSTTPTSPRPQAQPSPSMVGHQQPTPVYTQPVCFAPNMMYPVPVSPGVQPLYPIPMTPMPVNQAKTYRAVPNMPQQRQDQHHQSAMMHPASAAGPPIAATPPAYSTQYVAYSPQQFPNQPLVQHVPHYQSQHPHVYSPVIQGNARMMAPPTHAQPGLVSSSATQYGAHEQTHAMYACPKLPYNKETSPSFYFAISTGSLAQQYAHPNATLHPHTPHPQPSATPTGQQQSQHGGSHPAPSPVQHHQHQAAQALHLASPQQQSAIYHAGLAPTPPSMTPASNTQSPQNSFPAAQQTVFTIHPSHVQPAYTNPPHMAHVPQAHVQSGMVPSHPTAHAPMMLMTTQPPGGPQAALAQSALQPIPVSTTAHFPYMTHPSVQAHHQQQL

B1: TDP-43ΔNLS,5F→L-YFP (other, human, UniProt Q13148 1-414, looked up)
chain: MSEYIRVTEDENDEPIEIPSEDDGTVLLSTVTAQFPGACGLRYRNPVSQCMRGVRLVEGILHAPDAGWGNLVYVVNYPKDNAAAMDETDASSAVKVKRAVQKTSDLIVLGLPWKTTEQDLKEYFSTFGEVLMVQVKKDLKTGHSKGLGLVRFTEYETQVKVMSQRHMIDGRWCDCKLPNSKQSQDEPLRSRKVLVGRCTEDMTEDELREFFSQYGDVMDVFIPKPFRALALVTFADDQIAQSLCGEDLIIKGISVHISNAEPKHNSNRQLERSGRFGGNPGGFGNQGGFGNSRGGGAGLGNNQGSNMGGGMNFGAFSINPAMMAAAQAALQSSWGMMGMLASQQNQSGPSGNNQNQGNMQREPNQAFGSGNNSYSGSNSGAAIGWGSASNAGSGSGFNGGFGSSMDSKSSGWGM
notes: also called ΔNLS-TDP-43-(5F→L)-YFP; not shown: C-terminal YFP tag
  binding result: no binding
